Laboratory results published in patent US20230227545A1 (published 2023).

Key:
human IL-1β [1] = molecular target: T1, human IL-1β (human, UniProt P01584 117-269); assay: cell-based or functional assay
human IL-1β [2] = molecular target: T1, human IL-1β; assay: cell-based or functional assay; remark: listed apart in the source
cynomolgus IL-1β [3] = molecular target: T2, cynomolgus IL-1β (cynomolgus macaque, UniProt P79182 117-268); assay: cell-based or functional assay
T2 sequence (looked up): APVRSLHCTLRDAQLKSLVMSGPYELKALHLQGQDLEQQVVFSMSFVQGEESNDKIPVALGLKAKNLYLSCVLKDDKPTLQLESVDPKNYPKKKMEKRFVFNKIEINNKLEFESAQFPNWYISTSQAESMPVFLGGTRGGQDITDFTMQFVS

human IL-1β [4] = molecular target: T1, human IL-1β; assay: cell-based or functional assay; remark: listed apart in the source
pig IL-1β = molecular target: T3, pig IL-1β (pig, UniProt P26889 115-267); assay: SPR, Biacore 8K, mAb captured on anti-human Fc chip, soluble IL-1β as analyte
T3 construct: also called pig IL-β
T3 sequence (looked up): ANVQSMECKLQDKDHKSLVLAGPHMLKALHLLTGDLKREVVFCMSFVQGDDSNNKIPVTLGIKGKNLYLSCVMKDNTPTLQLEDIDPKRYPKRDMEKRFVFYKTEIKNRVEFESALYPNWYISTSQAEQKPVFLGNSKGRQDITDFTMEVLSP
Experimental: (§1) Affinity assessment of 05H21A, 15N14A, and 08F17A against human IL-1β was performed by Surface Plasmon Resonance (SPR) using a Biacore 8k. Cross-reactivity of the same antibody panel was also assessed against cyno, mouse, rat and pig IL-1β.
(§2) SPR is a label-free technique to study the strength of an interaction between two binding partners by measuring the change in mass upon complex formation and dissociation. Briefly, antibodies were immobilized on a sensor chip which was coupled with goat anti-human Fc (GAH-Fc C1 sensor chip). Soluble IL-1β was flowed over the immobilized antibody and association/dissociation responses were monitored. Kinetic information (on-rate and off-rate constants) were extracted by fitting sensorgrams to the 1:1 Langmuir model. Binding affinity (KD) were reported as the ratio of rate constants (koff/kₒₙ).

mouse IL-1β = molecular target: T4, mouse IL-1β (mouse, UniProt P10749 118-269); assay: as above
T4 construct: also called mouse IL-β
T4 sequence (looked up): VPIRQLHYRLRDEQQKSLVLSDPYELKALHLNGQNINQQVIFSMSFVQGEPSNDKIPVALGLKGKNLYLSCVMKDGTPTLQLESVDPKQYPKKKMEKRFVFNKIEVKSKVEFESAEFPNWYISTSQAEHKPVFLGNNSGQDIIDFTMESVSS
Experimental: as §1, §2

rat IL-1β [5] = molecular target: T5, rat IL-1β (rat, UniProt Q63264 117-268); assay: as above
T5 construct: also called rat IL-β
T5 sequence (looked up): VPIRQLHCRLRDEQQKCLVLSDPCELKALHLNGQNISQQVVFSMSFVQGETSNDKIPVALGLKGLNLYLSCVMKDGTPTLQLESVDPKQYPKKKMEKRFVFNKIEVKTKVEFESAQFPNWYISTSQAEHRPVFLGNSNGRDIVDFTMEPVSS
Experimental: as §1, §2

cynomolgus IL-1β [6] = molecular target: T2, cynomolgus IL-1β; assay: SPR, Biacore 8K, mAb captured on goat anti-human Fc C1 chip, soluble IL-1β as analyte, 1:1 Langmuir fit
Experimental: as §1, §2

human IL-1β [7] = molecular target: T1, human IL-1β; assay: as above
Experimental: as §1, §2

rat IL-1β [8] = molecular target: T5, rat IL-1β; assay: as above
Experimental: as §1, §2

B1: 08F17A (antibody, human IgG1, kappa, V domains shown)
VH: EVQLVESGGGLVTPGGSLRLSCAASGFTFSGYSMNWVRQAPGKGLEWVSSISSSSGYIYYADSVKGRFTISRDNAKNSLYLQMNSLRAEDTAVYYCAREYWGSGFDYWGQGTLVTVSS
VL: DIQMTQSPSSLSASVGDRVTITCRASQGISYYLAWYQQKPGKVPKLLISAEFTLQSGVPSRFSGSGSGTDFTLTISSLQPEDVATYYCQKYNTAPRTFGQGTKVEIKR
notes: Kappa light chain; also called 08F17A (anti-IL-1β) mAb [IgG1: YTE]
Human IL-1β [1]
  IC30, inhibition of rhIL-1β-induced CXCL5 release, human whole blood (5 donors): 1.33 nM
  IC30, inhibition of rhIL-1β-induced G-CSF release, human whole blood (5 donors): 0.704 nM
  IC30, inhibition of rhIL-1β-induced IL-6 release, human whole blood (5 donors): 0.872 nM
  IC50, inhibition of rhIL-1β-induced CXCL5 release, human whole blood (5 donors): 2.86 nM
  IC50, inhibition of rhIL-1β-induced G-CSF release, human whole blood (5 donors): 1.31 nM
  IC50, inhibition of rhIL-1β-induced IL-6 release, human whole blood (5 donors): 1.53 nM
  IC90, inhibition of rhIL-1β-induced CXCL5 release, human whole blood (5 donors): 20.8 nM
  IC90, inhibition of rhIL-1β-induced G-CSF release, human whole blood (5 donors): 6.58 nM
  IC90, inhibition of rhIL-1β-induced IL-6 release, human whole blood (5 donors): 6.56 nM
Human IL-1β [2]
  IC30, inhibition of rhIL-1β-induced cytokine release, NHDF donor 29114: 0.087 nM
  IC30, inhibition of rhIL-1β-induced cytokine release, NHLF donor 34325: 0.127 nM
  IC30, inhibition of rhIL-1β-induced cytokine release, NHLF donor 35234: 0.09 nM
  IC50, inhibition of rhIL-1β-induced cytokine release, NHDF donor 29114: 0.174 nM
  IC50, inhibition of rhIL-1β-induced cytokine release, NHLF donor 34325: 0.293 nM
  IC50, inhibition of rhIL-1β-induced cytokine release, NHLF donor 35234: 0.207 nM
  IC90, inhibition of rhIL-1β-induced cytokine release, NHDF donor 29114: 1.07 nM
  IC90, inhibition of rhIL-1β-induced cytokine release, NHLF donor 34325: 2.55 nM
  IC90, inhibition of rhIL-1β-induced cytokine release, NHLF donor 35234: 1.8 nM
Cynomolgus IL-1β [3]
  IC30, inhibition of G-CSF release, cynomolgus lung fibroblasts (CLF), 15 pM rcynoIL-1β: 3.58 nM
  IC30, inhibition of IL-6 release, cynomolgus dermal fibroblasts (CDF), 5 pM rcynoIL-1β: 2.72 nM
  IC30, inhibition of IL-6 release, cynomolgus lung fibroblasts (CLF), 15 pM rcynoIL-1β: 3.44 nM
  IC50, inhibition of G-CSF release, cynomolgus dermal fibroblasts (CDF), 5 pM rcynoIL-1β: 3.24 nM
  IC50, inhibition of G-CSF release, cynomolgus lung fibroblasts (CLF), 15 pM rcynoIL-1β: 6.11 nM
  IC50, inhibition of IL-6 release, cynomolgus dermal fibroblasts (CDF), 5 pM rcynoIL-1β: 5.1 nM
  IC50, inhibition of IL-6 release, cynomolgus lung fibroblasts (CLF), 15 pM rcynoIL-1β: 6.97 nM
  IC90, inhibition of G-CSF release, cynomolgus lung fibroblasts (CLF), 15 pM rcynoIL-1β: 24.3 nM
  IC90, inhibition of IL-6 release, cynomolgus dermal fibroblasts (CDF), 5 pM rcynoIL-1β: 25.9 nM
  IC90, inhibition of IL-6 release, cynomolgus lung fibroblasts (CLF), 15 pM rcynoIL-1β: 43.6 nM
Human IL-1β [4]
  IC30, inhibition of IL-6 release, human PBMCs (n=5 donors), 10 pM rhIL-1β: 52 pM
  IC30, inhibition of IL-6 release, human PBMCs (n=5 donors), 30 pM rhIL-1β: 0.156 nM
  IC50, inhibition of IL-6 release, human PBMCs (n=5 donors), 10 pM rhIL-1β: 92 pM
  IC50, inhibition of IL-6 release, human PBMCs (n=5 donors), 30 pM rhIL-1β: 0.241 nM
  IC90, inhibition of IL-6 release, human PBMCs (n=5 donors), 10 pM rhIL-1β: 0.402 nM
  IC90, inhibition of IL-6 release, human PBMCs (n=5 donors), 30 pM rhIL-1β: 0.744 nM
Pig IL-1β
  binding result: no binding
Mouse IL-1β
  binding result: no binding
Rat IL-1β [5]
  binding result: no binding
Cynomolgus IL-1β [6]
  Kd: 1.71 nM
  koff: 0.000295 s⁻¹
  kon: 172000 M⁻¹ s⁻¹
Human IL-1β [7]
  Kd: 0.18 nM

B2: 15N14A (antibody, human IgG1, lambda, V domains shown)
VH: QVQLQESGPGLVKPSETLSLTCTVSGGSISSYYWTWIRQPAGKGLEWIGRIDSSGSSKYNPTLKSRVTMSVDTSKNQFSLKLSSVTAADTAVYYCARGDSGYDWAFDYWGQGTLVTVSS
VL: QAVLTQPSSLSASPGASASLTCTLRSGINVGTYRIYWYQQKPGSPPQYLLSYKSDSDKQQGSGVPSRFSGSKDASANVGILLISGLQSEDEADYYCMIWHSSAWVFGGGTKLTVLG
notes: Lambda light chain; also called 15N14A (anti-IL-1β) mAb [IgG1: YTE]
Human IL-1β [1]
  IC30, inhibition of rhIL-1β-induced CXCL5 release, human whole blood (5 donors): 0.364 nM
  IC30, inhibition of rhIL-1β-induced G-CSF release, human whole blood (5 donors): 0.299 nM
  IC30, inhibition of rhIL-1β-induced IL-6 release, human whole blood (5 donors): 0.36 nM
  IC50, inhibition of rhIL-1β-induced CXCL5 release, human whole blood (5 donors): 0.603 nM
  IC50, inhibition of rhIL-1β-induced G-CSF release, human whole blood (5 donors): 0.52 nM
  IC50, inhibition of rhIL-1β-induced IL-6 release, human whole blood (5 donors): 0.595 nM
  IC90, inhibition of rhIL-1β-induced CXCL5 release, human whole blood (5 donors): 2.24 nM
  IC90, inhibition of rhIL-1β-induced G-CSF release, human whole blood (5 donors): 2.18 nM
  IC90, inhibition of rhIL-1β-induced IL-6 release, human whole blood (5 donors): 2.18 nM
Human IL-1β [2]
  IC30, inhibition of rhIL-1β-induced cytokine release, NHDF donor 29114: 0.069 nM
  IC30, inhibition of rhIL-1β-induced cytokine release, NHLF donor 34325: 0.128 nM
  IC30, inhibition of rhIL-1β-induced cytokine release, NHLF donor 35234: 0.09 nM
  IC50, inhibition of rhIL-1β-induced cytokine release, NHDF donor 29114: 0.127 nM
  IC50, inhibition of rhIL-1β-induced cytokine release, NHLF donor 34325: 0.253 nM
  IC50, inhibition of rhIL-1β-induced cytokine release, NHLF donor 35234: 0.178 nM
  IC90, inhibition of rhIL-1β-induced cytokine release, NHDF donor 29114: 0.626 nM
  IC90, inhibition of rhIL-1β-induced cytokine release, NHLF donor 34325: 1.48 nM
  IC90, inhibition of rhIL-1β-induced cytokine release, NHLF donor 35234: 1.04 nM
Cynomolgus IL-1β [3]
  IC30, inhibition of G-CSF release, cynomolgus lung fibroblasts (CLF), 15 pM rcynoIL-1β: 0.129 nM
  IC30, inhibition of IL-6 release, cynomolgus dermal fibroblasts (CDF), 5 pM rcynoIL-1β: 93 pM
  IC30, inhibition of IL-6 release, cynomolgus lung fibroblasts (CLF), 15 pM rcynoIL-1β: 0.192 nM
  IC50, inhibition of G-CSF release, cynomolgus lung fibroblasts (CLF), 15 pM rcynoIL-1β: 0.261 nM
  IC50, inhibition of IL-6 release, cynomolgus dermal fibroblasts (CDF), 5 pM rcynoIL-1β: 0.156 nM
  IC50, inhibition of IL-6 release, cynomolgus lung fibroblasts (CLF), 15 pM rcynoIL-1β: 0.376 nM
  IC90, inhibition of G-CSF release, cynomolgus lung fibroblasts (CLF), 15 pM rcynoIL-1β: 1.63 nM
  IC90, inhibition of IL-6 release, cynomolgus dermal fibroblasts (CDF), 5 pM rcynoIL-1β: 0.594 nM
  IC90, inhibition of IL-6 release, cynomolgus lung fibroblasts (CLF), 15 pM rcynoIL-1β: 2.14 nM
Human IL-1β [4]
  IC30, inhibition of IL-6 release, human PBMCs (n=5 donors), 10 pM rhIL-1β: 32 pM
  IC30, inhibition of IL-6 release, human PBMCs (n=5 donors), 30 pM rhIL-1β: 75 pM
  IC50, inhibition of IL-6 release, human PBMCs (n=5 donors), 10 pM rhIL-1β: 56 pM
  IC50, inhibition of IL-6 release, human PBMCs (n=5 donors), 30 pM rhIL-1β: 0.12 nM
  IC90, inhibition of IL-6 release, human PBMCs (n=5 donors), 10 pM rhIL-1β: 0.226 nM
  IC90, inhibition of IL-6 release, human PBMCs (n=5 donors), 30 pM rhIL-1β: 0.409 nM
Pig IL-1β
  binding result: no binding
Mouse IL-1β
  binding result: no binding
Rat IL-1β [8]
  Kd: 74.5 nM
  koff: 0.0574 s⁻¹
  kon: 771000 M⁻¹ s⁻¹
Cynomolgus IL-1β [6]
  Kd: 0.07 nM
  koff: 0.000209 s⁻¹
  kon: 3.01e+06 M⁻¹ s⁻¹
Human IL-1β [7]
  Kd: 0.064 nM
  koff: 0.000141 s⁻¹
  kon: 2.2e+06 M⁻¹ s⁻¹
